Measured values published in patent US20160264649A1.

What was measured:
Experiment in all cases: cell-based or functional assay
[1] = target: HIV-1 Env of isolate 92UG005 (subtype D) (HIV-1)
[2] = target: envelope of aMLV pseudovirus (negative control)
[3] = target: HIV-1 Env of isolate 92UG046 (subtype D) (HIV-1)
[4] = target: HIV-1 Env of pseudovirus isolate MGRM-G-006 (subtype G) (HIV-1)
[5] = target: HIV-1 Env of isolate MGRM-F1-017 (subtype F) (HIV-1)
[6] = target: HIV-1 Env of pseudovirus isolate MGRM-G-001 (subtype G) (HIV-1)
[7] = target: HIV-1 Env of isolate MGRM-F1-015 (subtype F) (HIV-1)
[8] = target: HIV-1 Env of pseudovirus isolate MGRM-G-028 (subtype G) (HIV-1)
[9] = target: HIV-1 Env of isolate MGRM-D-012 (subtype D) (HIV-1)
[10] = target: HIV-1 Env of isolate MGRM-D-004 (subtype D) (HIV-1)
[11] = target: HIV-1 Env of pseudovirus isolate MGRM-G-024 (subtype G) (HIV-1)
[12] = target: HIV-1 Env of isolate MGRM-D-022 (subtype D) (HIV-1)
[13] = target: HIV-1 Env of pseudovirus isolate MGRM-G-011 (subtype G) (HIV-1)
[14] = target: HIV-1 Env of isolate MGRM-D-003 (subtype D) (HIV-1)
[15] = target: HIV-1 Env of isolate MGRM-F1-012 (subtype F) (HIV-1)
[16] = target: HIV-1 Env of isolate MGRM-F1-004 (subtype F) (HIV-1)
[17] = target: HIV-1 Env of isolate MGRM-D-013 (subtype D) (HIV-1)
[18] = target: HIV-1 Env of pseudovirus isolate MGRM-G-016 (subtype G) (HIV-1)
[19] = target: HIV-1 Env of isolate MGRM-D-019 (subtype D) (HIV-1)
[20] = target: HIV-1 Env of isolate MGRM-F1-021 (subtype F) (HIV-1)
[21] = target: HIV-1 Env of isolate MGRM-F1-016 (subtype F) (HIV-1)
[22] = target: HIV-1 Env of pseudovirus isolate MGRM-G-004 (subtype G) (HIV-1)
[23] = target: HIV-1 Env of pseudovirus isolate MGRM-G-025 (subtype G) (HIV-1)
[24] = target: HIV-1 Env of isolate 98CN009 (subtype CRF07_BC) (HIV-1)
[25] = target: HIV-1 Env of isolate MGRM-F1-018 (subtype F) (HIV-1)
[26] = target: HIV-1 Env of isolate MGRM-F1-013 (subtype F) (HIV-1)
[27] = target: HIV-1 Env of isolate 98CN006 (subtype CRF08_BC) (HIV-1)
[28] = target: HIV-1 Env of isolate MGRM-D-011 (subtype D) (HIV-1)
[29] = target: HIV-1 Env of isolate MGRM-D-021 (subtype D) (HIV-1)
[30] = target: HIV-1 Env of pseudovirus isolate MGRM-G-014 (subtype G) (HIV-1)
[31] = target: HIV-1 Env of pseudovirus isolate MGRM-G-019 (subtype G) (HIV-1)
[32] = target: HIV-1 Env of isolate MGRM-D-005 (subtype D) (HIV-1)
[33] = target: HIV-1 Env of isolate MGRM-D-026 (subtype D) (HIV-1)
[34] = target: HIV-1 Env of isolate MGRM-F1-010 (subtype F) (HIV-1)
[35] = target: HIV-1 Env of pseudovirus isolate MGRM-G-017 (subtype G) (HIV-1)
[36] = target: HIV-1 Env of isolate MGRM-F1-008 (subtype F) (HIV-1)
[37] = target: HIV-1 Env of isolate 92UG001 (subtype D) (HIV-1)
[38] = target: HIV-1 Env of pseudovirus isolate MGRM-G-015 (subtype G) (HIV-1)
[39] = target: HIV-1 Env of isolate MGRM-D-028 (subtype D) (HIV-1)
[40] = target: HIV-1 Env of isolate 92UG024 (subtype D) (HIV-1)
[41] = target: HIV-1 Env of isolate MGRM-D-001 (subtype D) (HIV-1)
[42] = target: HIV-1 Env of isolate MGRM-F1-022 (subtype F) (HIV-1)
[43] = target: HIV-1 Env of isolate MGRM-D-002 (subtype D) (HIV-1)
[44] = target: HIV-1 Env of isolate MGRM-F1-014 (subtype F) (HIV-1)
[45] = target: HIV-1 Env of pseudovirus isolate MGRM-G-009 (subtype G) (HIV-1)
[46] = target: HIV-1 Env of pseudovirus isolate MGRM-G-013 (subtype G) (HIV-1)
[47] = target: HIV-1 Env of isolate MGRM-F1-020 (subtype F) (HIV-1)
[48] = target: HIV-1 Env of isolate MGRM-D-008 (subtype D) (HIV-1)
[49] = target: HIV-1 Env of isolate 92UG114 (subtype D) (HIV-1)
[50] = target: HIV-1 Env of isolate MGRM-F1-006 (subtype F) (HIV-1)
[51] = target: HIV-1 Env of isolate MGRM-D-024 (subtype D) (HIV-1)
[52] = target: HIV-1 Env of isolate MGRM-D-016 (subtype D) (HIV-1)
[53] = target: HIV-1 Env of isolate MGRM-D-029 (subtype D) (HIV-1)
[54] = target: HIV-1 Env of isolate MGRM-F1-023 (subtype F) (HIV-1)
[55] = target: HIV-1 Env of isolate MGRM-D-014 (subtype D) (HIV-1)
[56] = target: HIV-1 Env of isolate MGRM-D-018 (subtype D) (HIV-1)
[57] = target: HIV-1 Env of isolate MGRM-D-020 (subtype D) (HIV-1)
[58] = target: HIV-1 Env of pseudovirus isolate MGRM-G-027 (subtype G) (HIV-1)

B1: PGT-127 (antibody, V domains shown)
VH: QPQLQESGPGLVEASETLSLTCTVSGDSTGRCNYFWGWVRQPPGKGLEWIGSLSHCRSYYNTDWTYHNPSLKSRLTISLDTPKNQVFLRLTSVTAADTATYYCARFGGEVLVYRDWPKPAWVDLWGRGTLVVTVS
VL: QSALTQPPSASGSPGQSITISCTGTSNNFVSWYQQYPGKAPKLVIYEVNKRPSGVPDRFSGSKSGSTASLTVSGLQADDEGVYYCSSLVGNWDVIFGGGTKLTVL
With B1 the IC50 (neutralization) [1] was 1.11 µg/mL, the IC50 [2] was > 50 µg/mL and the IC50 (neutralization) [3] was > 50 µg/mL. The IC50 [4] was > 50 µg/mL, the IC50 (neutralization) [5] was > 50 µg/mL and the IC50 [6] was 0.113 µg/mL. The IC50 (neutralization) [7] was > 50 µg/mL, the IC50 [8] was 0.032 µg/mL and the IC50 (neutralization) [9] was > 50 µg/mL. The IC50 (neutralization) [10] was > 50 µg/mL, the IC50 [11] was > 50 µg/mL and the IC50 (neutralization) [12] was > 50 µg/mL. For the same binder, the IC50 [13] was > 50 µg/mL, the IC50 (neutralization) [14] was 0.029 µg/mL and the IC50 (neutralization) [15] was > 50 µg/mL. For the same binder, the IC50 (neutralization) [16] was 0.068 µg/mL, the IC50 (neutralization) [17] was > 50 µg/mL and the IC50 [18] was > 50 µg/mL. The IC50 (neutralization) [19] was > 50 µg/mL, the IC50 (neutralization) [20] was > 50 µg/mL and the IC50 (neutralization) [21] was > 50 µg/mL. For the same binder, the IC50 [22] was > 50 µg/mL, the IC50 [23] was 19.3 µg/mL and the IC50 (neutralization) [24] was 0.09 µg/mL. For the same binder, the IC50 (neutralization) [25] was 3.59 µg/mL, the IC50 (neutralization) [26] was > 50 µg/mL and the IC50 (neutralization) [27] was 0.067 µg/mL. For the same binder, the IC50 (neutralization) [28] was 0.015 µg/mL, the IC50 (neutralization) [29] was 0.056 µg/mL and the IC50 [30] was 0.009 µg/mL. The IC50 [31] was 0.429 µg/mL, the IC50 (neutralization) [32] was 6.04 µg/mL and the IC50 (neutralization) [33] was > 50 µg/mL. The IC50 (neutralization) [34] was > 50 µg/mL, the IC50 [35] was > 50 µg/mL and the IC50 (neutralization) [36] was > 50 µg/mL. The IC50 (neutralization) [37] was > 50 µg/mL, the IC50 [38] was > 50 µg/mL and the IC50 (neutralization) [39] was > 50 µg/mL. For the same binder, the IC50 (neutralization) [40] was > 50 µg/mL, the IC50 (neutralization) [41] was 2.23 µg/mL and the IC50 (neutralization) [42] was > 50 µg/mL. For the same binder, the IC50 (neutralization) [43] was 0.6 µg/mL, the IC50 (neutralization) [44] was > 50 µg/mL and the IC50 [45] was > 50 µg/mL. The IC50 [46] was 7.7 µg/mL, the IC50 (neutralization) [47] was > 50 µg/mL and the IC50 (neutralization) [48] was > 50 µg/mL. It also gave an IC50 (neutralization) [49] of 7.09 µg/mL, an IC50 (neutralization) [50] of 7.17 µg/mL and an IC50 (neutralization) [51] of 1.95 µg/mL. The IC50 (neutralization) [52] was > 50 µg/mL, the IC50 (neutralization) [53] was > 50 µg/mL and the IC50 (neutralization) [54] was 0.119 µg/mL. The IC50 (neutralization) [55] was 0.393 µg/mL, the IC50 (neutralization) [56] was 0.021 µg/mL and the IC50 (neutralization) [57] was 0.015 µg/mL. For the same binder, the IC50 [58] was > 50 µg/mL.
